Measured values as given in the DeepSol protein solubility set.

Assay: soluble on expression in E. coli; label from the status in PepcDB or PDB records

Row | Sequence | soluble on expression in E. coli
1 | MASEQEKTADFGFRTVAKDEKEVMVAEVFHSVAAKYDLMNDLMSFGIHRIWKRFTIECSGVRRNQRVLDLAGGTGDLTAKFSRMVGEGGEVILADINASMLKVGREKLRNKGIIDNINYVQANAEALPFPDDFFDCITISFGLRNVTDKNKALRSMYRVLKPGGRLLVLEFSKPVIKQLSTIYDAYSFHILPRIGEAVASDAGSYRYLAESIRMHPDQETLKGMMSDAGFDSVNYFNLTGGIVALHRGFKFLEHHHHHH | not soluble
2 | MSLDGEQTTREPVLKAMFLADTHLLGEFLGHWLDKLRREWQMERAFQTALWLLQPEVVFILGDIFDEGKWSTPEAWADDVERFQKMFRHPSHVQLKVVAGNHDIGFHYEMNTYKVERFEKVFSSERLFSWKGINFVMVNSVALNGDGCGICSETEAELIEVSHRLNCSREARGSSRCGPGPLLPTSAPVLLQHYPLYRRSDANCSGEDAAPAEERDIPFKENYDVLSREASQKLLWWLQPRLVLSGHTHSACEVHHGGRVPELSVPSFSWRNRNNPSFIMGSITPTDYTLSKCYLPREEGHHHHHH | not soluble
3 | MEKTTEGAFYTREYRNLFKEFGYSEAEIQERVKDTWEQLFGDNPETKIYYEVGDDLGYLLDTGNLDVRTAGMSYGMMMAVQMDRKDIFDRIWNWTMKNMYMTEGVHAGYFAWSCQPDGTKNSWGPAPDGEEYFALALFFASHRWGDGDEQPFNYSEQARKLLHTCVHNGEGGPGHPMWNRDNKLIKFIPEVEFSDPSYHLPHFYELFSLWANEEDRVFWKEAAEASREYLKIACHPETGLAPEYAYYDGTPNDEKGYGHFFSDSYRVAANIGLDAEWFGGSEWSAEEINKIQAFFADKEPEDYRRYKIDGEPFEEKSLHPVGLIATNAMGSLASVDGPYAKANVDLFWNTPVRTGNRRYYDNCLYLFAMLALSGNFKIWFPEGQEEEHLEHHHHHH | soluble
4 | MHNSSSSTIGKPLIPQKLPEFLNAYENFIIAGHKEPDGDCIGSCLAMSFFLKRKNKNCILMSAGPFKRTEIKEYEHLFTDKLKISDKINPKTTGLIILDCSNFDRVGEIAELISGFNYIIIDHHATNTEKSDTSLIMPEAPSTTYLIQSIIEEIGEKLTKEEADALFFGLCTDTGFFRHLDAGSAEVFAHASRLIEAGANPKQTFMKINGGKKFESRLLISRILNRMKTYYDGRLVVSYETYDDLLEFGLESRDSDILYQLIQSIEGVEAICIVRQDSPSHCSVGFRSLDKIDVSKIAASFGGGGHKQASGLYIEGKFDDLIPRFVEAFGTQMLEHHHHHH | soluble
5 | MAHHHHHHMLRHFQRDVRGGSSSRRKLPRSVVGERSEEGSGTSKDPFVLSLREIPNRSGCYHCVEDCCECLWITELLAVCYGSLPTRRQVMTYRKRERCAKSILPPFVARIVRVAKISSQDTFYDLGCGNGSVLFQVALLTGARCVGVEINERNATVAQDAWRRLRPMIEARRGEPVEVEIICADFCSLMRDEKFFGSSPVIWAANLLMPGPVNHYLSERFRLLPKGSRVLCLEDLYPHGRSVAKFRDPDAFEMFAMTDFKWQTKSVEWCDTEGPFSMYTKRT | not soluble
6 | MSLSMSKRLLLFDFDETYFKHNTNEEDLSHLREMEKLLEKLTNNNEVMTAVLTGSTFQSVMDKMDQVNMTFKPLHIFSDLSSKMFTWNNGEYIESETYKKKVFSEPFLFEDIEDILRHISAQYNVEFIPQRAFEGNETHYNFYFHSTGNHSNDRRILEALVRYANDQNYTARFSRSNPLAGDPENAYDIDFTPSNAGKLYATQFLMKKYNIPVKSILGFGDSGNDEAYLSYLEHAYLMSNSRDEALKQKFRLTKYPYYQGITLHVKEFVEGKYDYEGHHHHHH | soluble
7 | MQHQTLYQDDFVEIFEQDNEVFIKTFKPGLPPKQLNEILSSLPQIQITSFNCLNDALNIVSPSPQKFGRLKERIAITVTPDELKAFVTFNLPREELDIKNRENLIKETYQVLKKKNINFGIKKELFFGDLESGKKYLIAEGVPAVDGEDCKIRMYELEEPRPEIREDGKANYYELKLINKVKAGDWLGERIDATEGFPGKTVYGTTIHPVRGKNYPLSYDKNTVYEVVQNKKVVLYSKIDGAVHYDGNKITVSNHLEIDGDVDFKTGNIIFDGYVTIKGTVTDGFYVEATKDIEINSPLGLGNVKGIKSREGSIYIKGGISSKSFSEISARKNIYTKFVDNVKLSCGGTAHIGFYCINSMVEAKEVFIESIKGNIMGGQVKAEVKITVPVLGSPLEPRTVLILTGFDRKKLSKMLEDIVDRIDRIKEEQMDIKLYLSKQDPFKEMTSRETAEYNSKMQRMSELKAELKSLEEEKKNIARYLKTKGEGEIAITKKVYPNCSIIIKNIQTEIKEPCLATTFFAADGEIKRV | soluble
8 | MKVTFMNLEERKKLETKSIDELDLIGKKVCVDTCVVIDGRITELIERGKLKDATIIIPEAVVSELEYQANMGREIGYKGIEELRKLIEKASEHNIKVEYYGERPTREEIFLAKSGEIDAMIRKVAKETNSILLTSDWIQYNLAKAQGIEAYFLEAAEEEVELVLD | not soluble
9 | MGSDKIHHHHHHLYNQPEVALEKYELTVSRIIKGRGAYICDTGIGQKLLVPYRGHEQRACTLRDTLAFIQRNGMDVEQISQTKEQCIISRDNCEDAYILKDYRAGRECSTDSIDDMRGGSRALAQLHNILEKYPLPSDIEVESLYEKAQRKCAQIVKLKNYILRRSKTNAFEHLFYECYERFLEQGQKSAEILCELENSKTSVPIYCHGAFNQHNVVYTQSGRWLPVNFETMHPGYPETDLAEYMRKMLEKNHWDTAVADAILDSYCSVRSLDDTSMRLLQALLLFPEKFCKLCNHYSNSRKSWVCDRDVDKLAQLIQLSGEREEYLHALQAIV | not soluble
10 | MKIIILHGLYMHGLVMQPLSQKLRKLGYETQVLSYNTVAIDESSLFDSIDHSLNPLTANVLVGHSLGGLMIKRYLANRKPTTSLISHVVAIGSPLKGASIVGRIQDLGLGAILGNSPHHGLNKHHDAWAFPQKLGSIAGTVPIGARPLLIRNDNTMSDGTVTVEETRLDGMQDHIEVKQTHTSLIYNTFVPQQIDHFIRTDYFCR | not soluble
11 | MAKVSLEKDKIKFLLVEGVHQKALESLRAAGYTNIEFHKGALDDEQLKESIRDAHFIGLRSRTHLTEDVINAAEKLVAIGAFAIGTNQVDLDAAAKRGIPVFNAPFSNTRSVAELVIGELLLLLRGVPEANAKAHRGVWNKLAAGSFEARGKKLGIIGYGHIGTQLGILAESLGMYVYFYDIENKLPLGNATQVQHLSDLLNMSDVVSLHVPENPSTKNMMGAKEISLMKPGSLLINASRGTVVDIPALADALASKHLAGAAIDVFPTEPATNSDPFTSPLAEFDNVLLTPHIGGSTQEAQENIGLEVAGKLIKYSDNGSTLSAVNFPEVSLPLHVGRRLMHIHENRPGVLTALNKIFAEQGVNIAAQYLQTSAQMGYVVIDIEADEDVAEKALQAMKAIPGTIRARLLY | soluble
12 | SDSTAGTDAVAVGGTFQFHSPDGKMEIFYDEADRQQLPDIGGDSLMEEGTQINLSDFENQVVILNAWGQWCAPCRSESDDLQIIHEELQAAGNGDTPGGTVLGINVRDYSRDIAQDFVTDNGLDYPSIYDPPFMTAASLGGVPASVIPTTIVLDKQHRPAAVFLREVTSKDVLDVALPLVDEA | soluble
13 | MKRRKQSRRWRGKKYAPVMIGMLVLLMNLADLKISNLISGSIICQAAERQSENTETENNSGGTEKEKITQTEASTVSDILEELDLSRVQRMLDQMLGEESFSMKDMLDGLIKGEKVLSEDTVQEMVHSFLFSGLEKEKS | not soluble
14 | MKILVYGINYSPELTGIGKYTGEMVEWLAAQGHEVRVITAPPYYPQWQVGENYSAWRYKREEGAATVWRCPLYVPKQPSTLKRLLHLGSFAVSSFFPLMAQRRWKPDRIIGVVPTLFCAPGMRLLAKLSGARTVLHIQDYEVDAMLGLGLAGKGKGGKVAQLATAFERSGLHNVDNVSTISRSMMNKAIEKGVAAENVIFFPNWSEIARFQHVADADVDALRNQLDLPDNKKIILYSGNIGEKQGLENVIEAADRLRDEPLIFAIVGQGGGKARLEKMAQQRGLRNMQFFPLQSYDALPALLKMGDCHLVVQKRGAADAVLPSKLTNILAVGGNAVITAEAYTELGQLCETFPGIAVCVEPESVEALVAGIRQALLLPKHNTVAREYAERTLDKENVLRQFINDIRG | soluble
15 | MGSDKIHHHHHHMYVLHICHSYYPPFLDCARQYAALFKDSPYKVVTVYLTGKPDPEVERGSASDEVVFLGYSSKQVKGLKLGAIAKIRQLVKSRNFAFCIAHRAKPTYVALLATGLPVVSVHHNYNDYGRFTRRILVNFYRKRILMLCVSNSVRDEMRQHLKHWPAEQIQTLYNRIDVDAVRQSLLPRQEARRLLELEDDTYVIANVGRLHRDKDQATLLRGFAQALPELPANTLLLILGKGPLEQELKALASELGIAGNVRFAGQVPEARRYFRAFDLFVLTSDHEPFGMVLLEAMAAELPIICSDSGGGAEVVNGYGDLFSLGNPHHLSSLLIARSRLPQAANSSADILHEKFSDAAARKHFFMLTFIKDLLFI | not soluble
16 | MSLDLRARVREELERLKREGLYISPKVLEAPQEPVTRVEGREVVNLASNNYLGFANHPYLKEKARQYLEKWGAGSGAVRTIAGTFTYHVELEEALARFKGTESALVLQSGFTANQGVLGALLKEGDVVFSDELNHASIIDGLRLTKATRLVFRHADVAHLEELLKAHDTDGLKLIVTDGVFSMDGDIAPLDKIVPLAKKYKAVVYVDDAHGSGVLGEKGKGTVHHFGFHQDPDVVQVATLSKAWAGIGGYAAGARELKDLLINKARPFLFSTSHPPAVVGALLGALELIEKEPERVERLWENTRYFKRELARLGYDTLGSQTPITPVLFGEAPLAFEASRLLLEEGVFAVGIGFPTVPRGKARIRNIVTAAHTKEMLDKALEAYEKVGKRLGIIR | soluble
17 | MSPHPQPAPEPVIQYIASCKLPTPWGEFVMHGFEEESGQEHVALTLGEVGDGLPVLARLHSECLTGDALFSLRCDCGFQLEAAMEAISKAGRGALLYLRQEGRGIGLINKIRAYKLQDGGADTVEANERLGFPADMRDFRIARHMLAHLGIGSVKVMTNNPRKLATLEAAGIAVVERVPLQVGRNPYNDRYLDTKAAKLGHMLLKLEHHHHHH | soluble
18 | MGSSHHHHHHSSENLYFQGHMSSRAETPRVPFLDLKAAYEELRAETDAAIARVLDSGRYLLGPELEGFEAEFAAYCETDHAVGVNSGMDALQLALRGLGIGPGDEVIVPSHTYIASWLAVSATGATPVPVEPHEDHPTLDPLLVEKAITPRTRALLPVHLYGHPADMDALRELADRHGLHIVEDAAQAHGARYRGRRIGAGSSVAAFSFYPGKNLGCFGDGGAVVTGDPELAERLRMLRNYGSRQKYSHETKGTNSRLDEMQAAVLRIRLAHLDSWNGRRSALAAEYLSGLAGLPGIGLPVTAPDTDPVWHLFTVRTERRDELRSHLDARGIDTLTHYPVPVHLSPAYAGEAPPEGSLPRAESFARQVLSLPIGPHLERPQALRVIDAVREWAERVDQA | soluble
19 | MNCWMRSPRWPPTTDGSNSSQWVTPCSQMDRSVFSPTPSVPMKLFSTRTLSGTGWAVCKPVGATGVVKGLQRVRLAGLRPAHREDIAIHELVFQRDDDGAIAVCTRRLRLVERLLAKRTDEHRHTGWMGVGHIHRWGAVNECSLAIRMRWLRAPDYVYNTPRCAQLLTSESTKPNGTHGHTMTTFLLATSSVHVTAAAADYLQHRLDSAADHDIVVVAVHDPDAPSRDAGDAVNVARSRLAAFMPATETRDGAPVTEILAAVDEHDPDELLIGPHRGTDDSDGVGSMARDLLTNVDRPVIVLPLP | not soluble
20 | NPQTSVSNTGKEADATKNQTSKADQVSAPYEGTGKTSKSLYGGQTELEKNIQTLQPSSIIGTDERTRISSTTSFPYRATVQLSIKYPNTSSTYGCTGFLVNPNTVVTAGHCVYSQDHGWASTITAAPGRNGSSYPYGTYSGTMFYSVKGWTESKDTNYDYGAIKLNGSPGNTVGWYGYRTTNSSSPVGLSSSVTGFPCDKTFGTMWSDTKPIRSAETYKLTYTTDTYGCQSGSPVYRNYSDTGQTAIAIHTNGGSSYNLGTRVTNDVFNNIQYWANQ | not soluble
